In patent publication US20020032310A1:

Target: KGFR (keratinocyte growth factor receptor, KGFR-type isoform of the FGFR2/BEK gene) (mouse) (UniProt P21803)
Assay: cell-based or functional assay

Transforming Activity: 14000 ffu/pmol DNA
Substance: KGF secreted from NIH 3T3 cells (from UniProt P36363 32-194) (ligand)
